In US20030147883A1 (US Dept. of Health and Human Services, published 2003):

Target: T1, chemokine receptor CCR5 (human, UniProt P51681 1-352)
T1 construct: whole, on cells
Experiment: ^125I-MIP-1β binding to human monocytes, displacement by unlabeled MIP-1β
Procedure: After incubation, the cells were washed with DPBS and centrifuged through a 10% sucrose/DPBS cushion. The tips of tubes containing cell pellets were cut and the cell-associated radioactivity was determined in a gamma counter. The results were presented as counts per minute (cpm) on 2×10⁶ monocyte and were representative of at least three experiments performed.

T1 sequence (P51681 whole entry): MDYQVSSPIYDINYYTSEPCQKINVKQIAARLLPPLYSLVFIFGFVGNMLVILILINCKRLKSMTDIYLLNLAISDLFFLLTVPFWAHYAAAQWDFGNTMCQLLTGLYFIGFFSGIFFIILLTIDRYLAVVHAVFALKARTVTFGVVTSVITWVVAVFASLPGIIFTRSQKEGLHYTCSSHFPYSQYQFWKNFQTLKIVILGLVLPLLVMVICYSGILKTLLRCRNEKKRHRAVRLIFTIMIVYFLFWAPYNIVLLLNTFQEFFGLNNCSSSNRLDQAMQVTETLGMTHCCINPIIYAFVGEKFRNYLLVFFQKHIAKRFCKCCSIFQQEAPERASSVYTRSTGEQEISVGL

B1: MIP-1β (ligand, human, UniProt P13236 24-92, looked up)
chain: APMGSDPPTACCFSYTARKLPRNFVVDYYETSSLCSQPAVVFQTKRSKQVCADPSESWVQEYVYDLELN
notes: also called MIP-1beta
- binding result: binds
